Test results taken from publication doi:10.1101/2021.11.20.466133 (bioRxiv, 2021).

Target: the molecule itself
Experiment: SEC-MALS

B1: Mycobacterium smegmatis c-di-AMP hydrolase (phosphodiesterase) MsPDE (enzyme)
chain: MPVTTTDPKTGLLTGPDAQIAGARVDARGAADLLTAASSVSVICHVYPDADTIGAGLALAQVLAASGKHVEVSFATPAQLPESLQSLPGGHLLVAPEAMRRDADLVVTVDIPSINRLGALSGLAGPGREVLVIDHHASNQLFGTANYIDPSADSTTMLVAELLDAWGKPIDEKVAHCLYAGLTTDTGSFRWATARAHRLAARLVELGVDNASISRTLLDTHPFAWLPMLSRVLATARLLPDALDGRGFVYAVVPHDEWSEARPEEVESIVDIVRTTQQAEVAAVFKEIEPMHWSVSMRAKSVNLASVASAFGGGGHPHAAGYSATGSADDVVQALARALG
  stoichiometry N: 2
